# Measured values: the nanobody polyreactivity screen of Harvey et al. (2022)
# Assay: yeast display, Sf9 membrane polyspecificity reagent, FACS + sequencing; frameworks hold sequencing errors
# Outline: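 Using colony PCR, genes from sorted yeast display clones were amplified, then sequenced on MiSeq at 2 × 250 and filtered by CDR length. The clones had been stained with 10% biotinylated, detergent-solubilized Sf9 membrane reagent for 1 hour at 4 °C and sorted by FACS into low and high (top ~1%) gates on anti-HA and streptavidin fluorescence. Polyreactivity labels come from the gate of origin.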
row,Sequence,polyreactivity (PSR sort gate)
1,QLQLVDSGGGVVQAGGSLRLSCAASGSTYAQYVMGWYRPATGKEKELVAAISLSGGSTYYAASVKGRFTISRDNAKNTVYLQMNSLKPVDTAVYYCSARGYGPGLYSSRQNEYYYWGQGTQVTVSS,high polyreactivity
2,QLQLVDSGRGLVQAGGSLRLSSAASGSIFVTNGMGWYRQAPGKERELVAVISWGGGNTYYADSVKGRFTISRDNAKNTVYLQMNNLKPEDTAVYYCAVELYWDYYFTYDYWGQGTQVTVSS,low polyreactivity
3,QLQLVESAGGLVQAGGSLRLSCAASASTFGSYAMGWYRQATGKETELDASNTSAGSTNYADSVKGRFTISRDNAKNTVYLQMNSLKPVDTEVYYCNDVRYYSYQYVPEVTHRYGFWGQGTQVTVSS,high polyreactivity
4,QLQLVESAVGLDQAVDILRLSSAASGFIFPGNMGWYRKAPGKETELVAAISWSGGSTRYADSVKGRFTISRDNAKNTVYLQMNSLKPEDTAVYYCAASLSGKRFNKRYYWGQGTQVTVSS,high polyreactivity
5,QLQLVESGGALVQAGGSLRFSCAASARTYGKNAMGWYRQAPGKERELDAAITWSGSSTYYADSVKGRFTISRHNAKNTVYLQMNSLKAEDTAVYYCAKEDWQLDYTVTWRKMDSWGQVTQVTVSS,low polyreactivity
6,QLQLVESGGGLDQAGVSLRLSCAASGFIFRNYAIGSYRQAPGNESELVAAITRSGTSTYYADSVKGRFSISRDNAKNTVYLQMNSLKPEDTAVYYCNTRYWLYYHRFDYWGQGTQVTVSS,high polyreactivity
7,QLQLVESGGGLLQAGGSLRLSCAAPGSTFAPNTMGWNRQPPGKARELVARITSSDGSTSYADSVKGRFTISRDNAKNTVYLQMNSLKPEDTAVYYCAAQYSYSMDYWGQGTQVTVSS,low polyreactivity
8,QLQLVESGGGLVKAGGSLRLSCAASGRTLPVYAMGWYRQAPGKERELVAAIRWRGGRTYYADSVKGRFTISRDNAKNTVYLQMNSLKPEDTAVYYCAATTNTDRDYWGQGTQVTVSS,high polyreactivity
9,QLQLVESGGGLVQAGGRLRLSCAASARILSSYAMGSYRQAPGKERELVARISYSGGRTYYADSVKGRFTISRDNAKNTVYLQMNSLKPEDTAVYYCAAVSRVHFSYSYDYWGQGTEVTVSS,high polyreactivity
10,QLQLVESGGGLVQAGGRLRLSCAASGFIFWSYAMGWYRQAPGKERELVAAISARGGSTYYADSVKGRFTISRDNSKNTVYLQMNSLKPEDTAVYYCAAPRASGYYWGKGTQVTVSS,high polyreactivity
11,QLQLVESGGGLVQAGGSLRLSCAAAGSTFRLYAMGWYRPAPGKERKLVAAISGRGDRTYYADSVKGRFTISRDNAKNAVYLQMISLKPEDTAVYSCAAKSGFIPYDYWGQGTQVTVSS,high polyreactivity
12,QLQLVESGGGLVQAGGSLRLSCAASGFIFETYAMGCYIQAPGKERELVAAISRGASTYYADSVKGRFTISRDNAKNTVYLQMNSLKPEYTAVYYCAAKRLSWHRYGYWGQGTQVTVSS,low polyreactivity
13,QLQLVESGGGLVQAGGSLRLSCAASGFTFDSYAMGWYRQAPGKERELVAAITWDGGSTYYADSVKGRFTISRDNAKNTVYLQMNSLKPEDTAVYYCAADFGTISIDVYSWMDYWGQGTQVTVSS,low polyreactivity
14,QLQLVESGGGLVQAGGSLRLSCAASGFTFKYNARGWYSQAPGKARELVASISSGSTTYADSVKGRFTISRDNAKNTVYLQINSLKPEDTAVYYCAASVSRGKRFRYGYVFKMDHWGQGTQVTVSS,low polyreactivity
15,QLQLVESGGGLVQAGGSLRLSCAASGFTIRRYAMGCYRQAPGKERELVAAITWSAGSTYYADSVKGRFTISRDNAKNTVYLQMNSLKPEDTAVYYCAARWTRWGADSGYYWGKGTQVTVSS,high polyreactivity
16,QLQLVESGGGLVQAGGSLRLSCAASGISFSSYTMGWYRQAHGKERELVAAITWRGGRTYYADSVKGRFKISRDNAKNTVFLQMHSLKTEDTSVFYCAARDVAGYSTRFYYWGQGTQVTVSS,high polyreactivity
17,QLQLVESGGGLVQAGGSLRLSCAASGLIFTYYAMGWYRQAPGKERELVAAISGRGGSTYYADSVKGRFTISRDSAMKTVYLQMNSLNPEDTAVYYCAAVRWAGYVSDYGYWGQGTQVTVSS,high polyreactivity
18,QLQLVESGGGLVQAGGSLRLSCAASGLTFYHYAMGWYRQAPGKERELVAAISTSGGSTYYADSVKGRFTVSRDNAKNTVYLQMNSLKPEDTAVYYCATERTYRYDFWGQGTQVTVSS,high polyreactivity
19,QLQLVESGGGLVQAGGSLRLSCAASGLTSPGNAMGWYRQAPGKEMELVAAISSGGNTYYADSVKGRFTISRDNAKNTVYLQMNSLKPEDTAVYYCNAGGGTNYGSGYWFGYYYWGQGSQVTVSS,low polyreactivity
20,QLQLVESGGGLVQAGGSLRLSCAASGNTFLLNAMGWYRQAPGKERELVAGIRWGAGRSYYADSVKGRFTISRDNAMNTVYVQMNSLKAEDTAVYSGAADPWSGSDYWGQGTQVTVSS,low polyreactivity
21,QLQLVESGGGLVQAGGSLRLSCAASGNTFYQYAMGWYRQAPGKERELVAGIRYNGGSTYYADSVKGRFTISRDNAKNTVDLQMNSLKPEDTAVYYCATKGYTGYAYRYGYWGQGTQVTVSS,high polyreactivity

row,Sequence,polyreactivity (PSR sort gate)
1,QLQLVESGGGLVQAGGSLRLSCAASGRIFSPYAMGWYSQAPGTASELVARISWRGSRTYFADSVKRRFTISRDNAKNTVYLQMNSLKPEDTAVYYCNAVVYRKPLRRDYWGQGTQVTVSS,high polyreactivity
2,QLQLVESGGGLVQAGGSLRLSCAASGRIFSRYAMGWYRQATGKERELVAAINKSGGSTYYADSVKGRFTFSRDNAKNTVYLQMNSLKPEDTAVYYCNAVYYWYKGDYWGQGTLVTVSS,high polyreactivity
3,QLQLVESGGGLVQAGGSLRLSCAASGRIFVKYAMGWYRQAPGKERELVAAISNGASTNYADSVKGRFTISRDNAKNTVYLQMNSLKPEDTAVYYCAASFSRYYRKRYDYWGQGTQVTVSS,high polyreactivity
4,QLQLVESGGGLVQAGGSLRLSCAASGRTFRYNAMGWYRQAPGKERELVASISWRGGSTYYADSVKGRFTISRDNAKNTVYLQMNSLKPEDTAVYYCVADAAHSEYDYWGQGTQVTVSS,high polyreactivity
5,QLQLVESGGGLVQAGGSLRLSCAASGRTFYQYAMGWYRKAPGKERELVAAITTSGGSTYYADSVKGRFTISRDNAKNTVYLQMNSLKPEYTAVYYCAAPYTGYRERGSYKSDYWGQGTQVTVSS,low polyreactivity
6,QLQLVESGGGLVQAGGSLRLSCAASGRTLQWSTMGGYRQAPGKERELVAVISKSGGRTYYADSVKGRFTISRDNAKNTVYLQMNSLKPEDTAVYYCNTPHRSSSVRSYGYWGQGTQVTVSS,high polyreactivity
7,QLQLVESGGGLVQAGGSLRLSCAASGSIFCQNNMGWYRQAPGKERELVDTITSAGSTYYADSVKGRFTISRANAQNTVYLQMNSLKPEYTAVFYCAAELYRYGFYVPIYPYSYDYWGQGTQVTVSS,low polyreactivity
8,QLQLVESGGGLVQAGGSLRLSCAASGSIFRFNAMGWYRQAPGKERELVAAISGDSGSTYYADSVKGRFTISRDTAKNTVYFQMNCLKPEDTAVYYCNARHGKIIFYLERYDYWGHGTQVTVSS,low polyreactivity
9,QLQLVESGGGLVQAGGSLRLSCAASGSIFSRNAMGWYRQAPAKERELVAGISTGGSTNYADSVKGRFTISRDNAKNTVYLLMNSLKTEVTAVYYCAAPLAYEGDYWGQGTQVTVSS,low polyreactivity
10,QLQLVESGGGLVQAGGSLRLSCAASGSIFYKYAMGWYRQAPGKERELVAAITWSGGRTYYADSVKGRFTISRDNAKNTVYLQMNSLIPEDTAVYYCAAVLRRYPGWVSDYNYWGQGTQVTVSS,high polyreactivity
11,QLQLVESGGGLVQAGGSLRLSCAASGSIIAAYAMGWYRQAPVKERELVAVITRSGGSTYYADSVKGRFTISRDNAKNTVYLQMNSLKPEDTAVYYCAAVGTRKMYYWGQGTQVTVSS,high polyreactivity
12,QLQLVESGGGLVQAGGSLRLSCAASGSTFAPYAMGWYRQAPGKERELVADISGGSTNYADSVKGRFTISRDNAKNTVYLQMNSLKPEDTAVYYCATEDHVETVRRLYGYWGLGTQVTVSS,low polyreactivity
13,QLQLVESGGGLVQAGGSLRLSCAASGSTFGFYAMGWYRQAPGKARELVAAISSSGSTYYADSVKGRFTISRDNAKITVYLQMNSLKPEDTAVYYCAAQPGYYDYDYWGQGTQVTVSS,low polyreactivity
14,QLQLVESGGGLVQAGGSLRLSCAASGSTFPTNAMGWYRQAPGKEMELVATITTGGSTYYADSVKGRFTISRDNAKNTVYLQMNCLKPEDTAVYYCNAEYVYLIFSVYLYDYDYWGQGTQVTVSS,low polyreactivity
15,QLQLVESGGGLVQAGGSLRLSCAASGSTFRFNTMGWYRQAPGKERGLVACIAAGTTTNYADSVKGRFTISRDNAKNTVYLQMNSLKPEDAAVYYCAALNAFNTGHWYWGQGTQVTVSS,low polyreactivity
16,QLQLVESGGGLVQAGGSLRLSCAASGSTFTFNAMGWYRQAPGKERELVATISRGGSTSYADSVKGRFTISRDNAKNTVYLQMNSLNPEDTAVYYCAAVLYPSIYGFAGGKTDYDYWGQGTQVTVSS,low polyreactivity
17,QLQLVESGGGLVQAGGSLRLSCAASGSTFWSNTMGWYRQAPGKERELVATITDSGGITYYADSVKGRFTISRDNAKNTVYLQMNSLKPEDTAVYYCNVRKTWYGYSVTGRYDYWGQGTQVTVSS,low polyreactivity
18,QLQLVESGGGLVQAGGSLRLSCAASGSTFYAYAMGWNRPAPGKERELVAAISRGGNTYYADSVQGRFTISRDNAKNTVYLQMNSRKPEDTAVYYCAARYARGRSPLQYGYWGQGTQVTVSS,high polyreactivity
19,QLQLVESGGGLVQAGGSLRLSCAASGVIFRAYAMGSSRQAPGQERELVAAISGRGGSTYYADSVKGRFTISRDNAKNTVYLQMNSLKPEDTAVYYCNVPLIHPGAPYEYWGQGTQVTVSS,high polyreactivity
20,QLQLVESGGGLVQAGGSLRLSCAASRRIFSPNAMGWYRQAPGKESELVAAIRWNGGRTYYADSVKGRFTISRDTAKNTVYLQMNSLKPEDTAVYYCAATYFGPDYVRYDDWGQGTQVTVSS,high polyreactivity
